{
  "source": "paper PMC4380410",
  "molecules": {"B1": {"name": "P1 probe (LC12/LC13) (dsDNA)", "DNA 1": "CGAATGCGGGGACTAGGGATTCTCCTAGTCGACCTTCGTT", "DNA 2": "AACGAAGGTCGACTAGGAGAATCCCTAGTCCCCGCATTCG"}, "B2": {"name": "P2 control probe (LC14/LC15) (dsDNA)", "DNA 1": "TGTGGTTCGCGTCCATGGGTGTCAGGCGGATGCTTAAGTC", "DNA 2": "GACTTAAGCATCCGCCTGACACCCATGGACGCGAACCACA"}},
  "key": {"[1]": {"target": "CfaR^full-HIS6 (Streptomyces scabies)", "assay": "cross-linking; glutaraldehyde (1 μL of 2.3% w/v) added to 80 pmol purified protein in 20 mM sodium phosphate pH 7.5, 20 μL, 5 min at 37°C; stopped with Tris-HCl pH 8.0; SDS-PAGE (12%), Coomassie staining"}, "[2]": {"target": "CfaR^ΔLuxR-HIS6 (Streptomyces scabies)", "assay": "cross-linking; glutaraldehyde (1 μL of 2.3% w/v) added to 80 pmol purified protein in 20 mM sodium phosphate pH 7.5, 20 μL, 5 min at 37°C; stopped with Tris-HCl pH 8.0; SDS-PAGE (12%), Coomassie staining"}, "[3]": {"target": "T1, CfaRfull-HIS6 (Streptomyces scabies 87-22) (UniProt C9ZEC8)", "T1 sequence": "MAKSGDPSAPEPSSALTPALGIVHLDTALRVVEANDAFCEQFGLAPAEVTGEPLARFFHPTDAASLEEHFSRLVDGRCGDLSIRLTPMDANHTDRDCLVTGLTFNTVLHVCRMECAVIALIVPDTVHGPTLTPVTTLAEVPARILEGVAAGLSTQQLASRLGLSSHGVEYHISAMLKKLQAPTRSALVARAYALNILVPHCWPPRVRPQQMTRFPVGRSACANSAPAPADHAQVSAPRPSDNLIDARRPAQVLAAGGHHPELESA", "assay": "EMSA", "details": "LightShift Chemiluminescent EMSA kit per manufacturer; buffer, salt, pH and temperature not stated (protein stored in 20 mM sodium phosphate, 150 mM NaCl, 20% …)"}, "CfaRfull-HIS6": {"target": "CfaRfull-HIS6 (Streptomyces scabies 87-22, UniProt C9ZEC8 1-265)", "assay": "EMSA; 0.1 pmol probe, 2 pmol protein; LightShift Chemiluminescent EMSA kit per manufacturer; buffer, salt, pH and temperature not stated (protein stored in 20 mM sodium phosphate, 150 mM NaCl, 20% glycerol, pH 7.8)", "details": "protein: recombinant; tags: C-terminal His6; chain copies: 2; blunt"}},
  "data": [
    {"molecule": "CfaR^full-HIS6 (natural protein)", "values": [
      {"measurement": "stoichiometry N", "setting": "[1]", "value": 2}
    ]},
    {"molecule": "CfaR^ΔLuxR-HIS6 (domain or fragment)", "values": [
      {"measurement": "stoichiometry N", "setting": "[2]", "value": 2}
    ]},
    {"molecule": "GACCTTCGTTCTGTAGCCCTTGTATGGTCGCATTGCCTCCGCAGGTCGACCCCTTTCGGCACCATAGGAGACCCTCTTGGCGAACATCGAATCGACCATCAAGCACATCCTGGTCGACGATCTCTTCATCACTGTGCCG (double strand) [fragment b]", "values": [
      {"measurement": "binding", "setting": "[3]", "value": "no binding"}
    ]},
    {"molecule": "GCACAGGAAGGAGGAGAACCCCTCACCTCGGGCCCTTGGACCCGACACACCCGCAGCGCGTGCGACGGTTCCTGCGCCGGCCGGCCTGACAAACCAGGGCGAGACGCCGCATCTGCGGAACCGGTCGACCCGCAGACGAATCGTGGCCGACGCCAACCCGAATGCGGG (double strand) [fragment c]", "values": [
      {"measurement": "binding", "setting": "[3]", "value": "no binding"}
    ]},
    {"molecule": "B1", "values": [
      {"measurement": "binding result", "setting": "CfaRfull-HIS6", "value": "binds"}
    ]},
    {"molecule": "B2", "values": [
      {"measurement": "binding result", "setting": "CfaRfull-HIS6", "value": "no binding"}
    ]}
  ]
}
